Test results reported in paper PMC4980077.

Assays:
PKA-RIα (Homo sapiens) = PKA-RIα (Homo sapiens) (UniProt P10644); test: fluorescence polarization; conditions: cited from earlier work
PKA-RIβ (Homo sapiens) = PKA-RIβ (Homo sapiens) (UniProt P31321); test: fluorescence polarization; conditions: cited from earlier work
smAKAP-wt-GFP (human) = smAKAP-wt-GFP (human) (UniProt Q9BSF0); test: FRET or BRET
smAKAP-wt-GFP (human), sequence (Q9BSF0 whole entry): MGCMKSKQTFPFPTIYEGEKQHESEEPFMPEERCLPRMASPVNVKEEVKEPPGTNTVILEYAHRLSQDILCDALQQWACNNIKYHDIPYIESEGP

smAKAP, sequence (Q9BSF0 2-95): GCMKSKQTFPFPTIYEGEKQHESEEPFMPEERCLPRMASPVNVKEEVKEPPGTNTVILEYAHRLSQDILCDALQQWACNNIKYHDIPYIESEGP
PKA-RIα (Homo sapiens), sequence (P10644 whole entry): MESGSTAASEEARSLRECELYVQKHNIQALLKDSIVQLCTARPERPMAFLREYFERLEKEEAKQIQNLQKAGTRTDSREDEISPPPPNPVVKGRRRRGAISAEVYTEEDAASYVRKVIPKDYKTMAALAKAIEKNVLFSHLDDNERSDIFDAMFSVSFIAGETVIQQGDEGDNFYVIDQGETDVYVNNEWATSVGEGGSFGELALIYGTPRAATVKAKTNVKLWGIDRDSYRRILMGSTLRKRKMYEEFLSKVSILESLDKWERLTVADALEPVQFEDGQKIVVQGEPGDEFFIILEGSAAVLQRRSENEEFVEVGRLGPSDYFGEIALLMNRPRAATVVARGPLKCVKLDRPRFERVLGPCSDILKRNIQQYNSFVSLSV

change of FRET signal after forskolin (smAKAP-wt-GFP (human)) | Substance | Kd (PKA-RIα (Homo sapiens)) | Kd (PKA-RIβ (Homo sapiens))
 | smAKAP (from UniProt Q9BSF0) | 6.7 nM | 6.9 nM
-2.3% | PKA-RIβ-mKO2 (from UniProt P31321 1-381) (natural protein) |  | 
